From patent US20040018971A1

Tests used:
[1] = molecular target: HLA-A*2401 (purified HLA class I molecule) (human); experiment: competition with 125I-labelled probe peptide for purified HLA, gel filtration; conditions: scale: ratio
HLA-A*2401 (human) [2] = experiment: inhibition of 125I probe peptide binding to purified HLA; IC50 standard/IC50 test
[3] = molecular target: HLA-DR3 (DRB1*0301), purified HLA class II molecule (human); experiment: competition with 125I-labelled probe peptide, purified HLA-DR
HLA-A*2401 (human) [4] = experiment: competition with 125I-labelled standard peptide for purified HLA, gel filtration
[5] = molecular target: HLA-A*2401 (purified HLA class I molecule) (human); experiment: as above; conditions: scale: ratio

| Substance | relative binding ratio (HLA-A*2401 (human) [2]) | relative binding ratio (ratio (IC50 standard / IC50 test)) [3] | further results |
| --- | --- | --- | --- |
| HER2/neu peptide, position 952, 10 amino acids | – | – | relative binding ratio [1]: 0.0019 |
| HER2/neu DR supermotif exemplary 15-mer … (position 912) (peptide) | – | 0.001 | – |
| HER2/neu DR supermotif exemplary 15-mer … (position 8) (peptide) | – | 0.001 | – |
| HER2/neu peptide, position 780, 11 amino acids | – | – | relative binding ratio (IC50 of standard peptide / IC50 of test peptide) (ratio to standard peptide) (HLA-A*2401 (human) [4]): 0.032 |
| HER2/neu DR supermotif exemplary 15-mer … (position 783) (peptide) | – | 0.0062 | – |
| HER2/neu DR supermotif exemplary 15-mer … (position 666) (peptide) | – | 0.0021 | – |
| HER2/neu peptide, position 172, 10 amino acids | – | – | relative binding ratio [5]: 0.0022 |

Now from value to substance, other results behind:

| relative binding ratio (HLA-A*2401 (human) [2]) | relative binding ratio (ratio (IC50 standard / IC50 test)) [3] | Substance | further results |
| --- | --- | --- | --- |
| 0.032 | – | HER2/neu 780-790 (peptide) | – |
| 0.0022 | – | HER2/neu 172-181 (from UniProt P04626 172-181) (peptide) | – |
| -0.0003 | – | HER2/neu 705-715 (from UniProt P04626 705-715) (peptide) | – |
| 0.0002 | – | HER2/neu 705-714 (from UniProt P04626 705-714) (peptide) | – |
